# Experiments:
# [1] = biological target: Low-density lipoprotein receptor 1 (low-density lipoprotein-related protein 1) (human (endogenous in HepG2 and primary human hepatocytes)) (UniProt Q07954); test: affinity purification with mass spectrometry; as a6, RAP (500 nM) added as competitor to human hepatocyte extract and heme–HPX Affi-Gel 15; amount of receptor isolated
# LRP1 (Homo sapiens) = LRP1 (Homo sapiens) (UniProt Q07954); test: surface plasmon resonance; settings: cited from earlier work
percent decrease of LRP1 isolated on proto-heme–human HPX Affi-Gel 15 with 500 nM RAP [1] [%],Substance,Kd (LRP1 (Homo sapiens)) [nM]
50,RAP (receptor associated protein) added at 500 nM (from UniProt P30533 35-357) (natural protein),–
–,hemopexin (from UniProt P02790),4
